Test results as given in publication PMC4756840, “The RNA-binding protein LARP1 is a post-transcriptional regulator of survival and tumorigenesis in ovarian cancer”.

B1: BCL2 3' UTR construct 2 (ssRNA)
RNA: GCCCUCCUGCCCUCCUUCCGCGGGGGCUUUCUCAUGGCUGUCCUUCAGGGUCUUCCUGAAAUGCAGUGGUGCUUACGCUCCACCAAGAAAGCAGGAAACCUGUGGUAUGAAGCCAGACCUCCCCGG
B2: BCL2 3' UTR construct 1 (ssRNA)
RNA: GGCUCCACCUGGAUGUUCUGUGCCUGUAAACAUAGAUUCGCUUUCCAUGUUGUUGGCCGGAUCACCAUCUGAAGAGCAGACGGAUGGAAAAAGGACCUGAUCAUUGGGGAAGCUGGCUUUCUGGCUGCUGGAGGCUGGGGAGAAGGUGUUCAUUCACUUGCAUUUCUUUGCCCUGGG
B3: OAZ1 3' UTR (ssRNA)
RNA: GGCCGCCUCGGGGCUGGGCAUCCGGCCCCUGGGGCCACCCCUUGUCAGCCGGGUGGGUAGGAACCGUAGACUCGCUCAUCUCGCCUGGGUUUGUCCGCAUGUUG
B4: BCL2 3' UTR construct 4 (ssRNA)
RNA: GCCCUCCAGAUAGCUCAUUUCAUUAAGUUUUUCCCUCCAAGGUAGAAUUUGCAAGAGUGACAGUGGAUUGCAUUUCUUUUGGGGAAGCUUUCUUUUGGUGGUUUUGUUUAUUAUACCUUCUUAAGUUUUCAACCAAGGUUUGCUUUUGUU
B5: BCL2 3' UTR construct 3 (ssRNA)
RNA: GCCUGUUUUGUCUUUUGUUGUUGUUCAAACGGGAUUCACAGAGUAUUUGAAAAAUGUAUAUAUAUUAAGAGGUCACGGGGGCUAAUUGCUGGCUGGCUGCCUUUUGCUGUGGGGUUUUGUU

What was measured:
LARP1 full length [1] = target: T1, LARP1 full length (UniProt Q6PKG0-3 1-1019); assay: EMSA; judged non-specific; Kd only in figure; 20 mM Tris-HCl pH 8, 150 mM NaCl, 10% glycerol, 1 mM DTT, 1 ug BSA, 0.5 ug tRNA, RNA <2 nM, 30 min on ice; native PAGE at 4 C; conditions: protein: recombinant; tags: N-terminal 6xHis-MBP, removed by TEV cleavage; label: 5'-32P
LARP1 full length [2] = target: T1, LARP1 full length; assay: competition; vs 32P-RPS6, 1-30 uM cold RNA; 20 mM Tris-HCl pH 8, 150 mM NaCl, 10% glycerol, 1 mM DTT, 1 ug BSA, 0.5 ug tRNA, RNA <2 nM, 30 min on ice; native PAGE at 4 C; conditions: protein: recombinant; tags: N-terminal 6xHis-MBP, removed by TEV cleavage; label: 5'-32P in direct EMSA
LARP1 full length [3] = target: T1, LARP1 full length; assay: EMSA; tRNA and BSA present; Kd only in figure; 20 mM Tris-HCl pH 8, 150 mM NaCl, 10% glycerol, 1 mM DTT, 1 ug BSA, 0.5 ug tRNA, RNA <2 nM, 30 min on ice; native PAGE at 4 C; conditions: protein: recombinant; tags: N-terminal 6xHis-MBP, removed by TEV cleavage; label: 5'-32P in direct EMSA

Row | Binder | binding signal (LARP1 full length [1]) | other results
1 | B1 | ~0.25 affinity relative to BCL2 construct 3 | 
2 | B2 | ~0.25 affinity relative to BCL2 construct 3 | 
3 | B3 |  | binding result (LARP1 full length [2]): no binding
4 | B4 | ~0.25 affinity relative to BCL2 construct 3 | 
5 | B5 |  | binding signal (LARP1 full length [3]): ~4 fold higher affinity than other BCL2 constructs
